Here are results for 3 molecules from PMC11829961 (Nature Communications, 2025).

One data set concerns the target T1, IL-36R (20-333)-His6-Avi (human, UniProt Q9HB29 20-333, biotin on the Avi tag (in vitro, BirA)).
T1 sequence (looked up): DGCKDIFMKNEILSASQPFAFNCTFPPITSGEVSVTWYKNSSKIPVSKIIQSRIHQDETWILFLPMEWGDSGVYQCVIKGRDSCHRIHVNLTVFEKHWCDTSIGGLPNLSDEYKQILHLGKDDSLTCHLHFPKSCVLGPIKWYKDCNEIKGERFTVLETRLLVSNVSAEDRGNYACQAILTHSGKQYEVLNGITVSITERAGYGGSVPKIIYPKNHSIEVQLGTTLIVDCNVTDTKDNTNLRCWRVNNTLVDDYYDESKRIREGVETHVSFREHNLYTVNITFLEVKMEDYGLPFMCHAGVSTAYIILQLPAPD
Kind of data set: SPR.

Another data set addresses IL-36R (20-220)-His6-Avi (human, UniProt Q9HB29, biotin on the Avi tag (in vitro, BirA)). Kind of data set: crystal structure.
The conditions of data set [1]: patients who had received at least one dose; cited from earlier work.

B1: Human IL-36α (aa 6–158) (ligand, UniProt Q9UHA7 6-158, looked up)
chain: KIDTPQQGSIQDINHRVWVLQDQTLIAVPRKDRMSPVTIALISCRHVETLEKDRGNPIYLGLNGLNLCLMCAKVGDQPTLQLKEKDIMDLYNQPEPVKSFLFYHSQSGRNSTFESVAFPGWFIAVSSEGGCPLILTQELGKANTTDFGLTMLF
In the data set with IL-36R (20-333)-His6-Avi, B1 had a Kd of roughly 600 nM.

B2: spesolimab-Fab (Fab, V domains shown)
VH: QVQLVQSGAEVKKPGASVKVSCKASGYSFTSSWIHWVKQAPGQGLEWMGEINPGNVRTNYNENFRNKVTMTVDTSISTAYMELSRLRSDDTAVYYCTVVFYGEPYFPYWGQGTLVTVSS
VL: QIVLTQSPGTLSLSPGERATMTCTASSSVSSSYFHWYQQKPGQAPRLWIYRTSRLASGVPDRFSGSGSGTDFTLTISRLEPEDAATYYCHQFHRSPLTFGAGTKLEIK
With B2, the binding result with IL-36R (20-220)-His6-Avi is recorded as “binds”.

B3: spesolimab: IL-36R blocking antibody, positive control; approved for flares of GPP (antibody, chains of the INN, looked up, V domains shown)
VH: QVQLVQSGAEVKKPGASVKVSCKASGYSFTSSWIHWVKQAPGQGLEWMGEINPGNVRTNYNENFRNKVTMTVDTSISTAYMELSRLRSDDTAVYYCTVVFYGEPYFPYWGQGTLVTVSS
VL: QIVLTQSPGTLSLSPGERATMTCTASSSVSSSYFHWYQQKPGQAPRLWIYRTSRLASGVPDRFSGSGSGTDFTLTISRLEPEDAATYYCHQFHRSPLTFGAGTKLEIK
B3: the “anti-drug antibodies observed, patients” value in data set [1] is 23 out of 50.
